B1: MNAT1 (parent)
chain: SLREYNDFLEEVEEIVFNLTNNVD
B2: MLL5 (parent)
chain: DCMGIDRQHIPDTYLCERCQPRNL

Variants of: B1
Assay: protein stability index of a GFP-peptide fusion (GPS, HEK-293T) (PSI 1-6); higher = more stable
Details: c terminus: a fixed tail appended
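Note: lentivirally expressed fusions sorted by FACS into six bins by GFP to DsRed ratio, PSI derived from sequencing read proportions per bin multiplied by bin number.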

Protein stability index: each site, then its substitutions
D24: R 1.26, Q 1.73, S 2.07, W 1.54, T 1.82, V 1.65, Y 1.9

Variants of: B2
Assay: as above
Details: c terminus: a fixed tail appended

Protein stability index: each site, then its substitutions
P11: W 1.7, T 3.08, C 4.15, G 2.96, H 3.71, L 2.23, E 3.43, Y 2.44, Q 2.69, R 3.15, D 2.61, K 2.62, N 4.19, V 2.73, S 2.23, M 2.82, I 2.36, F 2.59, A 2.6
H9: W 2.23, L 2.93, P 2.12, G 2.77, V 2.63, Y 2.01, Q 3.04, R 2.64, S 2.98, N 2.65, E 2.86, C 3.29, M 2.16, K 3.58, A 2.63, T 3.11, I 2.24, D 2.56, F 2.04
T13: S 3.66, C 2.17, L 2.04, P 3.33, G 3.31, D 3.54, H 3.36, W 2.7, K 3.24, I 2.26, E 3.71, V 3.34, R 3.63, Q 3.07, A 3.59, F 2.55, Y 2.15, N 2.91, M 2.89
G4: Y 2.49, C 3.73, E 3.23, K 3.19, W 1.78, D 3.11, R 2.48, T 3.23, P 2.55, S 3.45, N 2.19, Q 2.88, M 2.88, I 2.41, A 2.23, L 2.63, V 2.38, H 3.98, F 2.37
D1: V 2.86, K 2.58, F 1.89, S 3.17, P 3.3, L 2.21, Q 2.41, I 2.17, N 2.21, A 2.69, M 1.91, Y 1.95, C 3.63, W 1.4, H 2.73, T 2.43, E 2.63, R 2.42
D12: L 1.93, Y 2.1, S 2.38, V 1.69, A 2.01, C 2.67, H 2.48, T 2.81, R 2.86, M 3.1, P 3.19, E 2.81, I 2.51, F 2.64, G 2.63, N 2.38, K 1.96, Q 2.67
C16: W 2.9, G 4.23, H 3.58, F 3.13, Q 3.79, M 3.7, N 3.7, L 3.36, V 3.21, D 3.91, K 3.41, T 3.41, E 3.65, I 3.44, A 3.56, Y 2.88, R 3.67, P 3.73, S 3.52
Q8: A 2.54, Y 2.65, K 2.44, F 1.98, I 2.56, L 1.99, H 2.89, N 3.07, M 2.58, E 2.63, S 3.25, D 2.27, P 3.41, G 2.59, T 2.33, R 2.5, C 2.73, V 2.1, W 1.76
M3: R 2.61, W 3.54, Y 3.03, E 4.56, I 2.77, V 2.9, C 3.14, K 3.63, N 2.88, G 2.94, F 2.57, D 3.75, H 2.81, P 3.32, L 2.89, Q 2.48, A 2.48, T 2.47, S 3.66
L15: N 3.8, C 3.71, D 3.69, E 4.66, I 3.61, H 3.32, K 4, S 3.76, R 3.61, V 3.28, Y 2.28, P 3.15, Q 2.99, T 3.73, W 2.81, M 2.95, A 3.61, G 3.43, F 2
R7: I 2.24, W 2.4, K 2.29, F 2.78, Y 2.2, D 3.62, Q 3.06, T 3.02, N 2.9, G 3.69, S 3.44, M 2.55, C 4.09, P 2.94, A 2.63, V 2.39, H 3.73, L 2.68, E 3.58
C2: R 3.38, M 2.89, T 3.21, K 2.99, P 4.03, W 2.21, S 2.63, F 2.1, D 3.08, G 2.7, Q 3.48, Y 2.53, V 2.77, H 3.36, A 3.09, I 2.57, L 2.73, N 3.41, E 3.79
I5: A 3.7, W 2.88, C 3.73, H 3.99, T 3.69, N 3.67, D 2.87, K 3.48, S 2.54, Q 3.37, G 3.5, M 3.1, R 3.37, Y 2.61, P 3.27, E 3.57, V 3.16, F 2.85
R18: D 3.81, F 2.87, G 3.6, E 3.15, C 2.89, H 3.18, A 2.57
D6: P 2.61, L 2.31, M 1.88, A 3.27, G 2.78, F 1.74, I 1.56, Y 2.47, V 2.4, Q 3.21, T 2.02, S 2.99, R 2.74, K 2.59, H 3.19, C 3.29, W 1.62, E 2.78, N 2.4
E17: L 2.96, I 1.94, Q 3.04, Y 2.5, R 2.47, G 2.39, F 2.25, P 2.96, C 2.32, N 3.35, S 2.64, T 3.07, A 2.89, W 2.02, H 2.68, V 1.71, M 2.28, K 2.6, D 3.21
I10: V 2.45, F 2.54, Y 3.49, K 3.04, R 3, S 3.14, L 3.02, T 2.48, Q 3.42, C 3.62, N 3.3, P 2.97, D 3.56, G 3.13, W 2.37, E 3.72, M 3.9, H 3.49, A 2.92
Y14: N 3.15, A 3.85, C 4.74, M 3.5, P 3.71, H 4.12, F 2.89, E 4.21, V 3.43, L 2.56, T 3.73, I 3.21, R 3.88, D 3.83, K 3.11, W 3.26, Q 3.7, S 3.32, G 3.35
